test system: c-Src; test: phosphorylation enrichment, bacterial display (enrichment ratio); higher = better substrate or ligand; peptides without Tyr show the background
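Wherever SH2 binding enrichment of the phosphorylated peptide, bacterial display is given: peptide library displayed on the E. coli surface as eCPX fusions, selected cells deep-sequenced, score is each peptide's frequency after selection divided by its frequency in the input.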
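Wherever phosphorylation enrichment, bacterial display is given: 11-residue human phosphosite peptides and single-mutation variants displayed on the E. coli surface, counted by deep sequencing, each peptide's frequency after selection divided by its frequency in the unselected input library; frequency after pTyr selection over input frequency; kinase dosed for 20-30% of maximal phosphorylation in three min.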

Sequence | phosphorylation enrichment
HGEAYYSEVKA [PAK5_Y182_P187A] | 2.22
RGKLFYQEVPA [METTL11B_Y76_A72G] | 0.564
SCTFTCLLGDR [ETHE1_Y38_Y38C] | 0.387
HTVVSYAKVRA [CLOCK_Y378_E380K] | 0.489
GPRSLYNGLVA [UCP2_Y79] | 0.509
IVAREYFSDAD [CAMK2A_Y106_E109D_YF] | 0.438
ANLAKYGNPNE [BCHE_Y505_F502L] | 0.306
PLLEYYRDIFT [CDAN1_Y713] | 0.789
ALAHKYPGGGG [HBB_Y146_H147P] | 0.281
QTENKYVSVSG [EIF2AK3_Y565_D566V] | 0.693
RFFTTYDTNGR [CLCA1_Y665_YF] | 1.09
EVLKNYSQQKD [GOLGA4_Y1551_N1552S] | 0.433
SMVVPYEPPEV [TP53_Y220_V216M] | 0.526
VYYDLYGGEKF [PTPN11_Y66_D61V] | 5.53
LEFGDYHPLKP [VPS35L_Y32] | 0.821
WGTPEYDSVVA [MAP1A_Y1883_A1881P] | 0.59
DLDTDYGSGFP [RNASEH2A_Y206_YF] | 0.511

Sequence | phosphorylation enrichment
MKKKTYAMGGG [GAN_Y424_I423T] | 1
VQVAYYTVMMN [SPATA17_Y84_M86V] | 2.03
GDEVEYMLVSF [GCLC_Y53] | 1.16
IVEYAYNDKAI [PUM3_Y259] | 0.474
GGMAEYTRLHN [EHHADH_Y4] | 0.421
KMATAYIRRMS [BCO1_Y264] | 0.514
NFDRIYIYHLR [MYOF_Y1137_V1136I] | 0.923
VGSEDYGRDLT [SPTAN1_Y1792] | 0.513
DDLEVYLKHPL [SACS_Y3477_L3481P] | 1.85
LRFKQYLRNPP [SHC1_Y315] | 0.642
HIKHNYECLVF [XRCC5_Y416_YF] | 0.53
PINEPYGDDMD [JUP_Y693] | 0.858
LHQSTYQCFDV [SLC7A14_Y693_R695C_YF] | 5.09
KPEKTYGLRNE [CEP43_Y267_K271N] | 0.439
QAPPVYLDVLG [NTRK1_Y791] | 0.727
CDDGKYVYVVT [RPS6KA3_Y488_Y483C] | 0.863

target: Grb2 SH2 (UniProt P62993); test: SH2 binding enrichment of the phosphorylated peptide, bacterial display (enrichment ratio); higher = better substrate or ligand; peptides without Tyr show the background

Sequence | SH2 binding enrichment
HTVVSYAKVRA [CLOCK_Y378_E380K] | 1.11
ANLAKYGNPNE [BCHE_Y505_F502L] | 0.645
ALAHKYPGGGG [HBB_Y146_H147P] | 0.516
QTENKYVSVSG [EIF2AK3_Y565_D566V] | 0.707
EVLKNYSQQKD [GOLGA4_Y1551_N1552S] | 0.887
WGTPEYDSVVA [MAP1A_Y1883_A1881P] | 0.829
DLDTDYGSGFP [RNASEH2A_Y206_YF] | 0.589
MKKKTYAMGGG [GAN_Y424_I423T] | 0.728
IVEYAYNDKAI [PUM3_Y259] | 0.761
DDLEVYLKHPL [SACS_Y3477_L3481P] | 0.604
HIKHNYECLVF [XRCC5_Y416_YF] | 0.85
PINEPYGDDMD [JUP_Y693] | 1.04
KPEKTYGLRNE [CEP43_Y267_K271N] | 0.594
QAPPVYLDVLG [NTRK1_Y791] | 1.03

Now from value to sequence:

SH2 binding enrichment | Sequence
0.994 | HGEAYYSEVKA [PAK5_Y182_P187A]
0.956 | RGKLFYQEVPA [METTL11B_Y76_A72G]
1.01 | SCTFTCLLGDR [ETHE1_Y38_Y38C]
0.776 | GPRSLYNGLVA [UCP2_Y79]
0.8 | IVAREYFSDAD [CAMK2A_Y106_E109D_YF]
1.16 | PLLEYYRDIFT [CDAN1_Y713]
0.825 | RFFTTYDTNGR [CLCA1_Y665_YF]
0.892 | SMVVPYEPPEV [TP53_Y220_V216M]
1.34 | VYYDLYGGEKF [PTPN11_Y66_D61V]
0.902 | LEFGDYHPLKP [VPS35L_Y32]
1.63 | VQVAYYTVMMN [SPATA17_Y84_M86V]
0.821 | GDEVEYMLVSF [GCLC_Y53]
0.864 | GGMAEYTRLHN [EHHADH_Y4]
0.593 | KMATAYIRRMS [BCO1_Y264]
1.39 | NFDRIYIYHLR [MYOF_Y1137_V1136I]
0.63 | VGSEDYGRDLT [SPTAN1_Y1792]
0.786 | LRFKQYLRNPP [SHC1_Y315]
0.688 | LHQSTYQCFDV [SLC7A14_Y693_R695C_YF]
0.75 | CDDGKYVYVVT [RPS6KA3_Y488_Y483C]

target: SHP2-C SH2; test: as above

Sequence | SH2 binding enrichment
HTVVSYAKVRA [CLOCK_Y378_E380K] | 14.5
ANLAKYGNPNE [BCHE_Y505_F502L] | 0.639
ALAHKYPGGGG [HBB_Y146_H147P] | 0.581
QTENKYVSVSG [EIF2AK3_Y565_D566V] | 2.59
EVLKNYSQQKD [GOLGA4_Y1551_N1552S] | 0.782
WGTPEYDSVVA [MAP1A_Y1883_A1881P] | 0.612
DLDTDYGSGFP [RNASEH2A_Y206_YF] | 0.592
MKKKTYAMGGG [GAN_Y424_I423T] | 0.233
IVEYAYNDKAI [PUM3_Y259] | 0.656
DDLEVYLKHPL [SACS_Y3477_L3481P] | 0.592
HIKHNYECLVF [XRCC5_Y416_YF] | 0.715
PINEPYGDDMD [JUP_Y693] | 1.05
KPEKTYGLRNE [CEP43_Y267_K271N] | 0.758
QAPPVYLDVLG [NTRK1_Y791] | 0.765

Further lines, results first:

SH2 binding enrichment | Sequence
0.897 | HGEAYYSEVKA [PAK5_Y182_P187A]
0.804 | RGKLFYQEVPA [METTL11B_Y76_A72G]
0.98 | SCTFTCLLGDR [ETHE1_Y38_Y38C]
0.661 | GPRSLYNGLVA [UCP2_Y79]
0.589 | IVAREYFSDAD [CAMK2A_Y106_E109D_YF]
0.777 | PLLEYYRDIFT [CDAN1_Y713]
1.67 | RFFTTYDTNGR [CLCA1_Y665_YF]
0.659 | SMVVPYEPPEV [TP53_Y220_V216M]
1.06 | VYYDLYGGEKF [PTPN11_Y66_D61V]
0.733 | LEFGDYHPLKP [VPS35L_Y32]
0.952 | VQVAYYTVMMN [SPATA17_Y84_M86V]
0.701 | GDEVEYMLVSF [GCLC_Y53]
0.742 | GGMAEYTRLHN [EHHADH_Y4]
0.497 | KMATAYIRRMS [BCO1_Y264]
6.21 | NFDRIYIYHLR [MYOF_Y1137_V1136I]
0.571 | VGSEDYGRDLT [SPTAN1_Y1792]
0.591 | LRFKQYLRNPP [SHC1_Y315]
0.56 | LHQSTYQCFDV [SLC7A14_Y693_R695C_YF]
0.548 | CDDGKYVYVVT [RPS6KA3_Y488_Y483C]

target: c-Src SH2; test: as above

Sequence | SH2 binding enrichment
HTVVSYAKVRA [CLOCK_Y378_E380K] | 1.12
ANLAKYGNPNE [BCHE_Y505_F502L] | 0.425
ALAHKYPGGGG [HBB_Y146_H147P] | 0.384
QTENKYVSVSG [EIF2AK3_Y565_D566V] | 0.828
EVLKNYSQQKD [GOLGA4_Y1551_N1552S] | 0.501
WGTPEYDSVVA [MAP1A_Y1883_A1881P] | 0.864
DLDTDYGSGFP [RNASEH2A_Y206_YF] | 0.404
MKKKTYAMGGG [GAN_Y424_I423T] | 0.438
IVEYAYNDKAI [PUM3_Y259] | 0.571
DDLEVYLKHPL [SACS_Y3477_L3481P] | 0.341
HIKHNYECLVF [XRCC5_Y416_YF] | 4.51
PINEPYGDDMD [JUP_Y693] | 0.601
KPEKTYGLRNE [CEP43_Y267_K271N] | 0.534
QAPPVYLDVLG [NTRK1_Y791] | 0.723

Second part, the sequence after the results:

SH2 binding enrichment | Sequence
4.04 | HGEAYYSEVKA [PAK5_Y182_P187A]
1.11 | RGKLFYQEVPA [METTL11B_Y76_A72G]
0.945 | SCTFTCLLGDR [ETHE1_Y38_Y38C]
0.621 | GPRSLYNGLVA [UCP2_Y79]
0.467 | IVAREYFSDAD [CAMK2A_Y106_E109D_YF]
1.04 | PLLEYYRDIFT [CDAN1_Y713]
0.532 | RFFTTYDTNGR [CLCA1_Y665_YF]
0.769 | SMVVPYEPPEV [TP53_Y220_V216M]
2.26 | VYYDLYGGEKF [PTPN11_Y66_D61V]
0.58 | LEFGDYHPLKP [VPS35L_Y32]
1.93 | VQVAYYTVMMN [SPATA17_Y84_M86V]
0.407 | GDEVEYMLVSF [GCLC_Y53]
1.29 | GGMAEYTRLHN [EHHADH_Y4]
0.389 | KMATAYIRRMS [BCO1_Y264]
1.03 | NFDRIYIYHLR [MYOF_Y1137_V1136I]
0.369 | VGSEDYGRDLT [SPTAN1_Y1792]
0.477 | LRFKQYLRNPP [SHC1_Y315]
0.455 | LHQSTYQCFDV [SLC7A14_Y693_R695C_YF]
0.443 | CDDGKYVYVVT [RPS6KA3_Y488_Y483C]

From the supplement of paper PMC10065799, “High-throughput profiling of sequence recognition by tyrosine kinases and SH2 domains using bacterial peptide display” (eLife, 2023)
